Patent publication US20240216513A1, “FATTY ACID-BIFUNCTIONAL DEGRADER CONJUGATES AND THEIR METHODS OF USE” (Novartis AG, priority 2021, published 2024)

Key:
[1] = BTK FAC plasma stability assay, mouse plasma; format: in vitro ADME
Procedure: (§1) Plasma stability was conducted in Dulbecco's PBS buffer, mouse plasma, rat plasma or human plasma frozen with K3-EDTA from BiolVT). Thawed plasma was centrifuged prior to warming for 5 minutes at 37° C. Working solutions were prepared from 10 mM DMSO solution to 500 µM in acetonitrile:water (1:1); 2 µL of working solution was added to 198 µL blank plasma or PBS and mixed manually. 4×45 µL of spiked matrix was aliquoted into glass incubation plates (96-well DW glass microplate) and sealed with blue silicon/PTFE seal; then incubated on a Thermo shaker (38° C. 300 RPM). Samples were prepared at 0, 2, 6 and 24 h timepoints, by protein precipitation with chilled acetonitrile containing internal standard Glyburide (0.2 µM). Precipitated samples were shaken for 10 minutes and stored at 4° C. until completion of the study. Following precipitation of the terminal sample, samples were frozen at −80° C. for 1 hour. Samples were then thawed prior to centrifugation (20 minutes, 4500 RPM at 4° C.). 50 µL of supernatant of each sample was transferred to 384 well analysis plate containing 30 µL of water. Semi quantitative analysis (analyte: internal standard peak area ratio) was performed by LC-MS/MS using a Sciex QTrap 5500.

[2] = BTK FAC plasma stability assay, PBS buffer arm; format: physicochemical; details: for Plasma stability (h) PBS: incubation to 24 h
Procedure: as §1

[3] = BTK FAC plasma stability assay, dog plasma; format: in vitro ADME
[4] = BTK FAC plasma stability assay, rat plasma; format: in vitro ADME
Procedure: as §1

[5] = BTK FAC plasma stability assay, cyno plasma; format: in vitro ADME, cynomolgus monkey

Row | SMILES | % Release of degrader after 24 h mouse [1] [%] | Plasma stability (h) mouse ([1]; incubation to 24 h) [h] | % Release of degrader after 24 h PBS [2] [%] | Plasma stability (h) PBS [2] [h] | Plasma stability (h) dog [3] [h] | % Release of degrader after 24 h dog [3] [%] | % Release of degrader after 24 h rat [4] [%] | Plasma stability (h) rat ([4]; incubation to 24 h) [h] | Plasma stability (h) cyno [5] [h] | % Release of degrader after 24 h cyno [5] [%] | half-life at 5 µM ([1]; incubation to 24 h) [h] | half-life at 5 µM ([3]; read-out: Plasma stability (h) dog (converted)) [h] | half-life at 5 µM ([4]; incubation to 24 h) [h]
1 | CCCCCCCCCCCN(C(=O)CCCCCCCCCC(=O)O)C(CCC(=O)NCCOCCOCCOCCOCCOCCOCCOCCOCCOCCOCCOCCOCCOCCOCCOCCOCCC(=O)NCC(=O)OC(C)(C)c1ccc(C(=O)Nc2cc(F)cc(-c3ncnc4[nH]c(-c5ccc(CCN6CCC7(CC6)CCN(C(=O)c6ccc(OC)c(N8CCC(=O)NC8=O)c6)CC7)cc5)cc34)c2C)c(F)c1)C(=O)O (stereo not shown) [Example A9, 62-Carboxy-2-(4-((3-(6-(4-(2-(9-(3-(2,4-dioxotetrahydropyrimidin-(2H)-yl)-4-methoxybenzoyl)-3,9-diazaspiro[5.5]undecan-3-yl)ethyl)phenyl)-7H-pyrrolo[2,3-d]pyrimidin-4-yl)-5-fluoro-2-methylphenyl)carbamoyl)-3-fluorophenyl)-2-methyl-4,7,59,64-tetraoxo-63-undecyl-3,10,13,16,19,22,25,28,31,34,37,40,43,46,49,52,55-heptadecaoxa-6,58,63-triazatetraheptacontan-74-oic acid] | 15.6 | 4.6 | 1.2 | >48 | >48 | 5.7 | 22.4 | 6.8 | 30.8 | 3.7 |  |  | 
2 | CCCCCCCCCCCN(C(=O)CCCCCCCCCC(=O)O)C(CCC(=O)NCCOCCOCCOCCOCCOCCOCCOCCOCCOCCOCCOCCOCCC(=O)NCCC(=O)OC(C)(C)c1ccc(C(=O)Nc2cc(F)cc(-c3ncnc4[nH]c(-c5ccc(CCN6CCC7(CC6)CCN(C(=O)c6ccc(OC)c(N8CCC(=O)NC8=O)c6)CC7)cc5)cc34)c2C)c(F)c1)C(=O)O (stereo not shown) [Example A12, 51-Carboxy-2-(4-((3-(6-(4-(2-(9-(3-(2,4-dioxotetrahydropyrimidin-1(2H)-yl)-4-methoxybenzoyl)-3,9-diazaspiro[5.5]undecan-3-yl)ethyl)phenyl)-7H-pyrrolo[2,3-d]pyrimidin-4-yl)-5-fluoro-2-methylphenyl)carbamoyl)-3-fluorophenyl)-2-methyl-4,8,48,53-tetraoxo-52-undecyl-3,11,14,17,20,23,26,29,32,35,38,41,44-tridecaoxa-7,47,52-triazatrihexacontan-63-oic acid] | 14.2 | 27.3 | 0.3 | >48 | >48 | 1.2 | 2 | >49 | 44.9 | 0.5 |  |  | 
3 | CCCCCCCCCCCN(C(=O)CCCCCCCCCC(=O)O)C(CCC(=O)NCCOCCOCCOCCOCCOCCOCCOCCOCCOCCOCCOCCOCCC(=O)NCc1ccc(C(=O)OC(C)(C)c2ccc(C(=O)Nc3cc(F)cc(-c4ncnc5[nH]c(-c6ccc(CCN7CCC8(CC7)CCN(C(=O)c7ccc(OC)c(N9CCC(=O)NC9=O)c7)CC8)cc6)cc45)c3C)c(F)c2)cc1)C(=O)O (stereo not shown) [Example A14, 46-Carboxy-1-(4-(((2-(4-((3-(6-(4-(2-(9-(3-(2,4-dioxotetrahydropyrimidin-1(2H)-yl)-4-methoxybenzoyl)-3,9-diazaspiro[5.5]undecan-3-yl)ethyl)phenyl)-7H-pyrrolo[2,3-d]pyrimidin-4-yl)-5-fluoro-2-methylphenyl)carbamoyl)-3-fluorophenyl)propan-2-yl)oxy)carbonyl)phenyl)-3,43,48-trioxo-47-undecyl-6,9,12,15,18,21,24,27,30,33,36,39-dodecaoxa-2,42,47-triazaoctapentacontan-58-oic acid] | 9.5 | >48 | 0.2 | >48 | >48 | 0.1 | 0.3 | >48 | >48 | 0.2 |  |  | 
4 | CCCCCCCCCCCN(C(=O)CCCCCCCCCC(=O)O)C(CCC(=O)NCCOCCOCCOCCOCCOCCOCCOCCOCCOCCOCCOCCOCCC(=O)N1CCN(CC(=O)OC(C)(C)c2ccc(C(=O)Nc3cc(F)cc(-c4ncnc5[nH]c(-c6ccc(CCN7CCC8(CC7)CCN(C(=O)c7ccc(OC)c(N9CCC(=O)NC9=O)c7)CC8)cc6)cc45)c3C)c(F)c2)CC1)C(=O)O (stereo not shown) [Example A22, 44-Carboxy-1-(4-(2-((2-(4-((3-(6-(4-(2-(9-(3-(2,4-dioxotetrahydropyrimidin-1(2H)-yl)-4-methoxybenzoyl)-3,9-diazaspiro[5.5]undecan-3-yl)ethyl)phenyl)-7H-pyrrolo[2,3-d]pyrimidin-4-yl)-5-fluoro-2-methylphenyl)carbamoyl)-3-fluorophenyl)propan-2-yl)oxy)-2-oxoethyl)piperazin-1-yl)-1,41,46-trioxo-45-undecyl-4,7,10,13,16,19,22,25,28,31,34,37-dodecaoxa-40,45-diazahexapentacontan-56-oic acid] | 2.3 | >48 | 1.3 | >48 | >48 | 1.6 | 1.4 | >48 | >48 | 1.2 |  |  | 
5 | CCCCCCCCCCCN(C(=O)CCCCCCCCCC(=O)O)[C@@H](CCC(=O)N(CCNC(=O)CCOCCOCCOCCOCCOCCOCCOCCOCCOCCOCCOCCOC)CC(=O)OC(C)(C)c1ccc(C(=O)Nc2cc(F)cc(-c3ncnc4[nH]c(-c5ccc(CCN6CCC7(CC6)CCN(C(=O)c6ccc(OC)c(N8CCC(=O)NC8=O)c6)CC7)cc5)cc34)c2C)c(F)c1)C(=O)O [Example A37, (S)-46-Carboxy-42-(2-((2-(4-((3-(6-(4-(2-(9-(3-(2,4-dioxotetrahydropyrimidin-1(2H)-yl)-4-methoxybenzoyl)-3,9-diazaspiro[5.5]undecan-3-yl)ethyl)phenyl)-7H-pyrrolo[2,3-d]pyrimidin-4-yl)-5-fluoro-2-methylphenyl)carbamoyl)-3-fluorophenyl)propan-2-yl)oxy)-2-oxoethyl)-38,43,48-trioxo-47-undecyl-2,5,8,11,14,17,20,23,26,29,32,35-dodecaoxa-39,42,47-triazaoctapentacontan-58-oic acid] | 2.1 |  | 1.7 | >48 |  | 2.2 | 1.5 |  |  |  | > 48 | 44.7 | > 48
6 | CCCCCCCCCCCN(C(=O)CCCCCCCCCC(=O)O)C(CCC(=O)NCCOCCOCCOCCOCCOCCOCCOCCOCCOCCOCCOCCOCCC(=O)NCC(=O)NCn1c(-c2ccc(CCN3CCC4(CC3)CCN(C(=O)c3ccc(OC)c(N5CCC(=O)NC5=O)c3)CC4)cc2)cc2c(-c3cc(F)cc(NC(=O)c4ccc(C(C)(C)O)cc4F)c3C)ncnc21)C(=O)O (stereo not shown) [Example A38, 49-Carboxy-1-(6-(4-(2-(9-(3-(2,4-dioxotetrahydropyrimidin-1(2H)-yl)-4-methoxybenzoyl)-3,9-diazaspiro[5.5]undecan-3-yl)ethyl)phenyl)-4-(5-fluoro-3-(2-fluoro-4-(2-hydroxypropan-2-yl)benzamido)-2-methylphenyl)-7H-pyrrolo[2,3-d]pyrimidin-7-yl)-3,6,46,51-tetraoxo-50-undecyl-9,12,15,18,21,24,27,30,33,36,39,42-dodecaoxa-2,5,45,50-tetraazahenhexacontan-61-oic acid] | 0.1 | >48 | 0.2 | >48 | >48 | 0.1 | 0.1 | >48 |  |  |  |  | 
7 | CCCCCCCCCCCN(C(=O)CCCCCCCCCC(=O)O)C(CCC(=O)NCCOCCOCCOCCOCCOCCOCCOCCOCCOCCOCCOCCOCCC(=O)NCCOP(=O)(O)OC(C)(C)c1ccc(C(=O)Nc2cc(F)cc(-c3ncnc4[nH]c(-c5ccc(CCN6CCC7(CC6)CCN(C(=O)c6ccc(OC)c(N8CCC(=O)NC8=O)c6)CC7)cc5)cc34)c2C)c(F)c1)C(=O)O (stereo not shown) [Example A39, 47-Carboxy-1-((((2-(4-((3-(6-(4-(2-(9-(3-(2,4-dioxotetrahydropyrimidin-1(2H)-yl)-4-methoxybenzoyl)-3,9-diazaspiro[5.5]undecan-3-yl)ethyl)phenyl)-7H-pyrrolo[2,3-d]pyrimidin-4-yl)-5-fluoro-2-methylphenyl)carbamoyl)-3-fluorophenyl)propan-2-yl)oxy)(hydroxy)phosphoryl)oxy)-4,44,49-trioxo-48-undecyl-7,10,13,16,19,22,25,28,31,34,37,40-dodecaoxa-3,43,48-triazanonapentacontan-59-oic acid] | 0 | >48 | 0 | >48 | 39.0 | 0 | 0 | >48 |  |  |  |  | 
